The record followed here is publication PMC4021073, “Breast tumor specific mutation in GATA3 affects physiological mechanisms regulating transcription factor turnover”.

For the data set, the target named is GATA3 DBD wild-type (UniProt P23771-2 261-371). The data set can be described thus: EMSA; 0.5-4 uM protein, 30 uM DNA; 28 mM Tris-HCl pH 7.5, 120 mM NaCl, 1 mM DTT, 0.8 mM 2-mercaptoethanol, 4% glycerol, 0.4 uM zinc sulfate; 10 min at 37 C; 10 ul. The conditions noted are these: protein: recombinant; (pET-15b hexahistidine fusion); label: none (ethidium bromide stain); blunt (20 bp; one strand printed). In general terms: Mobility shift assays separate free from complexed probe on a gel.
Sequence of GATA3 DBD wild-type (P23771 260-370): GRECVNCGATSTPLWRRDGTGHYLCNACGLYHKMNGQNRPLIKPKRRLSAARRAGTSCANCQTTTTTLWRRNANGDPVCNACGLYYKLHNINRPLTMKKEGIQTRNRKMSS

B1: GATA+ 20 bp (dsDNA)
DNA 1: AATGTCCATCTGATAAGACG
DNA 2: CGTCTTATCAGATGGACATT
As for B1, the binding result is “binds”.
